Laboratory results taken from patent US20200165308A1 (UNIVERSITY OF MANITOBA, published 2020).

Assays:
[1] = target: T1, extracellular domains of UNC5h2 (CAD32251, aa: 25-374) (Mus musculus, UniProt Q8K1S3 25-374); assay: solid-phase binding
T1 construct: also called UNC5h2 full-length ectodomain; not shown: C-terminal double Strep-tag II

[2] = target: T2, Netrin-1 (NET1) from Mus musculus lacking the C-terminal domain (NP_032770, aa: 24-457) (Mus musculus, UniProt O09118 24-457); assay: solid-phase binding, NEO1 immobilized
[3] = target: T2, Netrin-1 (NET1) from Mus musculus …; assay: solid-phase binding

Binder | binding result [3] | also measured
NET1 with the eight loop a/b residues 348RRCRFNME355 replaced by the equivalent residues from NET4 (339DTCHFDVN346) (ligand, C350 and F352 are the same in both; also called NET1/NET4 loop a/b swap) not shown | – | fold drop in affinity against wild type NET1 [1]: 50 fold
full-length ectodomain of NEO1 (AAH54540, aa: 41-1107) (receptor, also called neogenin; NEO1 full-length ectodomain; not shown: C-terminal double Strep-tag II) GAAATKSGSPPQSAGASVRTFTPFYFLVEPVDTLSVRGSSVILNCSAYSEPSPNIEWKKDGTFLNLESDDRRQLLPDGSLFISNVVHSKHNKPDEGFYQCVATVDNLGTIVSRTAKLTVAGLPRFTSQPEPSSVYVGNSAILNCEVNADLVPFVRWEQNRQPLLLDDRIVKLPSGTLVISNATEGDGGLYRCIVESGGPPKFSDEAELKVLQDPEEIVDLVFLMRPSSMMKVTGQSAVLPCVVSGLPAPVVRWMKNEEVLDTESSGRLVLLAGGCLEISDVTEDDAGTYFCIADNGNKTVEAQAELTVQVPPGFLKQPANIYAHESMDIVFECEVTGKPTPTVKWVKNGDVVIPSDYFKIVKEHNLQVLGLVKSDEGFYQCIAENDVGNAQAGAQLIILEHDVAIPTLPPTSLTSATTDHLAPATTGPLPSAPRDVVASLVSTRFIKLTWRTPASDPHGDNLTYSVFYTKEGVARERVENTSQPGEMQVTIQNLMPATVYIFKVMAQNKHGSGESSAPLRVETQPEVQLPGPAPNIRAYATSPTSITVTWETPLSGNGEIQNYKLYYMEKGTDKEQDIDVSSHSYTINGLKKYTEYSFRVVAYNKHGPGVSTQDVAVRTLSDVPSAAPQNLSLEVRNSKSIVIHWQPPSSTTQNGQITGYKIRYRKASRKSDVTETLVTGTQLSQLIEGLDRGTEYNFRVAALTVNGTGPATDWLSAETFESDLDETRVPEVPSSLHVRPLVTSIVVSWTPPENQNIVVRGYAIGYGIGSPHAQTIKVDYKQRYYTIENLDPSSHYVITLKAFNNVGEGIPLYESAVTRPHTVPDPTPMMPPVGVQASILSHDTIRITWADNSLPKHQKITDSRYYTVRWKTNIPANTKYKNANATTLSYLVTGLKPNTLYEFSVMVTKGRRSSTWSMTAHGATFELVPTSPPKDVTVVSKEGKPRTIIVNWQPPSEANGKITGYIIYYSTDVNAEIHDWVIEPVVGNRLTHQIQELTLDTPYYFKIQARNSKGMGPMSEAVQFRTPKALGSAGKGSRLPDLGSDYKPPMSGSNSPHGSPTSPLDSN | – | binding result [2]: binds
UNC5h2 IgG1 (CAD32251, aa: 52-153) (receptor, also called Ig1; Ig1 domain of UNC5h2; not shown: C-terminal double Strep-tag II) not shown | binds | –
UNC5h2 IgG2 (CAD32251, aa: 154-245) (receptor, also called Ig2; Ig2 domain of UNC5h2; not shown: C-terminal double Strep-tag II) not shown | no binding | –
